Measured values: publication PMC12784346, “Paratope mapping of tilvestamab, an anti-AXL function-blocking antibody, using high-throughput bacterial expression of secreted scFv-osmY fusion proteins” (Bioscience Reports, 2025)

Molecular target: T1, AXL Ig1 domain fused to human Fc (Homo sapiens, UniProt P30530)
T1 construct: AXL receptor tyrosine kinase, human, Ig1 domain of the extracellular domain; Construct limits and production are in the Supplementary Information; also called AXL Ig1-Fc; AXL-Ig1-Fc
Test: BLI; Octet RED96; His-tagged scFv-osmY captured on Ni-NTA tips from undiluted bacterial supernatant (600 s); AXL Ig1 domain Fc 5.6 ug/ml in kinetic buffer (0.02% Tween 20, 0.05% sodium azide, 0.1% BSA in PBS) as analyte; rat Axl-Fc as control; traces scored by eye (normal, fast, very fast, weak, weak fast, none)
Conditions: one partner purified

| binding result | Binder |
| --- | --- |
| binds | tilvestamab scFv-osmY P238A (scFv, V domains shown, VH of tilvestamab, as the VH of m1; linker; VL of tilvestamab, as the VL of m1; numbers count on: the scFv-osmY fusion protein; source: E. coli T7 expression strain, secreted, culture supernatant used directly; not shown: His6, C-terminal, kept) VH: EVQLVESGGGLVQPGGSLRLSCAASGYSFTDFYINWVRQAPGKGLEWVARIFPGGDNTYYNEKFKGRFTLSADTSKSTAYLQMNSLRAEDTAVYYCARRGLYYAMDYWGQGTLVTVSS VL: DIQMTQSPSSLSASVGDRVTITCRSSQSLVHSNGIPYLHWYQQKPGKAPKLLIYRVSNRFSGVPSRFSGSGSGTDFTLTISSLQPEDFATYYCSQGTHVPATFGQGTKVEIK |
| binds | tilvestamab scFv-osmY F33T (scFv, V domains shown, VH of tilvestamab, as the VH of m1; numbers count on: the scFv-osmY fusion protein; linker; VL of tilvestamab, as the VL of m1; source: E. coli T7 expression strain, secreted, culture supernatant used directly; not shown: His6, C-terminal, kept) VH: EVQLVESGGGLVQPGGSLRLSCAASGYSFTDTYINWVRQAPGKGLEWVARIFPGGDNTYYNEKFKGRFTLSADTSKSTAYLQMNSLRAEDTAVYYCARRGLYYAMDYWGQGTLVTVSS VL: DIQMTQSPSSLSASVGDRVTITCRSSQSLVHSNGIPYLHWYQQKPGKAPKLLIYRVSNRFSGVPSRFSGSGSGTDFTLTISSLQPEDFATYYCSQGTHVPPTFGQGTKVEIK |
